From the supplement of paper PMC12764529
± gives the half width of the 95% confidence interval.

Tests used:
[1] = folding stability dG unfold from chymotrypsin proteolysis; higher = more stable
Summary of the method: (§1)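 Unfolding free energy was derived, per protease or combined, by relating Bayesian-fitted K50 values from sequencing counts to a sequence-predicted unfolded-state K50 and a shared folded-state K50. The underlying digests exposed cysteine-free mini-proteins under 80 residues, in a PA-tagged cDNA display construct, to trypsin and chymotrypsin at 11 threefold-diluted concentrations and to a no-protease condition. A filter kept only designs with AlphaFold2 dimer inter-PAE above 15.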

[2] = folding stability dG unfold (combined trypsin and chymotrypsin); higher = more stable
Summary of the method: as §1

[3] = folding stability dG unfold from trypsin proteolysis; higher = more stable
Summary of the method: as §1

With “SAGGSAGGSAGTIVITQSPDGTWRAYYEDGTAEEFDSIDDLKKALEEHYPDAKTVIFKPASAGGSAGGSAGG [r11_806_TrMRF]” the “folding stability dG unfold” value [1] was 2.99 ± 0.17 kcal/mol, the “folding stability dG unfold” value [2] was 3.15 ± 0.17 kcal/mol and the “folding stability dG unfold” value [3] was 3.33 ± 0.15 kcal/mol.

In the case of “SEEEIEERIKKLAEELGFKVTEIKIEKTDNKLTVTVTITLPNGKKLTFTVTRDKNGKLTFTPEQLKKALKSA [r9_85_TrROS_Hall]”, the “folding stability dG unfold” value [1] is reported as 3.609 ± 0.022 kcal/mol, the “folding stability dG unfold” value [2] is reported as 3.21 ± 0.07 kcal/mol and the “folding stability dG unfold” value [3] is reported as 2.36 ± 0.038 kcal/mol.

For “SAGGSAPVTLETEFFGENGLLVRTEAVVDPATGEVTVRTETFPVITGPADNPDVVKKLLEEAGIDASAGGSA [r2_304_TrMRF]”, the “folding stability dG unfold” value [1] was 0.817 ± 0.094 kcal/mol, the “folding stability dG unfold” value [2] was 0.887 ± 0.23 kcal/mol and the “folding stability dG unfold” value [3] was 0.645 ± 0.059 kcal/mol.

In the case of “SAGNYYRVEVENPSEGKKVTIHIFPNGMINVEHDGGEHWIMIPPDNPDQIEEIASELAPNGYEVDIEPWSAG [r5_791_TrROS]”, the “folding stability dG unfold” value [1] is reported as 0.856 ± 0.27 kcal/mol, the “folding stability dG unfold” value [2] is reported as 0.774 ± 0.18 kcal/mol and the “folding stability dG unfold” value [3] is reported as 0.593 ± 0.11 kcal/mol.

In the case of “SAGGMTITVPVDEEEAEEFIREATGELTALAEKYPDVPIEIEFPLKSGRVIRLRVYPKSKKVEIEVYDSAGG [r13_216_TrMRF]”, the “folding stability dG unfold” value [1] is reported as 2.559 ± 0.024 kcal/mol, the “folding stability dG unfold” value [2] is reported as 2.57 ± 0.045 kcal/mol and the “folding stability dG unfold” value [3] is reported as 2.48 ± 0.057 kcal/mol.

For “SAGGSAGGSAGHIPIIFQFEFEHYDPDDGKPKEHRWVIVIEFDGNGIKNIRIIPKEDAKKLLSAGGSAGGSA [r18_406_TrROS]”, the “folding stability dG unfold” value [1] was 2.28 ± 0.047 kcal/mol, the “folding stability dG unfold” value [2] was 2.25 ± 0.14 kcal/mol and the “folding stability dG unfold” value [3] was 2.31 ± 0.085 kcal/mol.

For “SAGGKKKKIEIEIVVKKEDLEKIAEELAKKLEEAGYKVKIKKIEVEVYKNKDGKIVYVKVRIEVEVEPSAGG [r13_707_TrROS_Hall]”, the “folding stability dG unfold” value [1] was 4.82 ± 0.18 kcal/mol, the “folding stability dG unfold” value [2] was 4.65 ± 0.53 kcal/mol and the “folding stability dG unfold” value [3] was 3.05 ± 0.47 kcal/mol.

For “SAGGSAGGSAGGPWITIPLPPGEEYKIENKGNGKEQEINPNDGSIVIPNIPPDNAKVERESAGGSAGGSAGG [r7_200_TrROS]”, the “folding stability dG unfold” value [1] was -0.177 ± 0.24 kcal/mol, the “folding stability dG unfold” value [2] was 0.232 ± 0.14 kcal/mol and the “folding stability dG unfold” value [3] was 0.179 ± 0.041 kcal/mol.

In the case of “SAGGPPVIRFPTAEIPASGTIEDIVAAIERATGEPLPEELVEQILNGKTIEEIIELLKKRGYPVEYLSAGGS [r16_601_JUSTAS]”, the “folding stability dG unfold” value [1] is reported as 3.11 ± 0.074 kcal/mol, the “folding stability dG unfold” value [2] is reported as 3.33 ± 0.088 kcal/mol and the “folding stability dG unfold” value [3] is reported as 3.84 ± 0.14 kcal/mol.

For “SAGGSAGGSAGVPSLEEVLAELEANPNSDAVVELPDGTRVRIRVERLPGGELRVEREEVLSAGGSAGGSAGG [r11_300_JUSTAS]”, the “folding stability dG unfold” value [1] was 1.78 ± 0.049 kcal/mol, the “folding stability dG unfold” value [2] was 1.6 ± 0.078 kcal/mol and the “folding stability dG unfold” value [3] was 1.21 ± 0.029 kcal/mol.

For “SAGGSMTAEELEGLPAEEIAELLPSDYTVSFIPETGLLVVEAPTRVVLATYNPAEGTVTLLEVRDASAGGSA [r2_470_TrMRF]”, the “folding stability dG unfold” value [1] was 0.819 ± 0.07 kcal/mol, the “folding stability dG unfold” value [2] was 0.91 ± 0.12 kcal/mol and the “folding stability dG unfold” value [3] was 0.849 ± 0.086 kcal/mol.

For “SAGGVLTRVEIEIVEPGTGVPKRFEALLETGDDGTITLLLPDGTVIELPPTANIKILSEEVLSPSELSAGGS [r16_223_JUSTAS]”, the “folding stability dG unfold” value [1] was 0.0233 ± 0.17 kcal/mol, the “folding stability dG unfold” value [2] was 1.37 ± 0.21 kcal/mol and the “folding stability dG unfold” value [3] was 2.02 ± 0.1 kcal/mol.

In the case of “SAKKVKIEIKNKETNKIYTIEIKEDGKVTIKNKETGEEIEVEINGKKITFPPGASIDEIIKKLEEALKKSAG [r14_561_TrROS_Hall]”, the “folding stability dG unfold” value [1] is reported as 2.77 ± 0.12 kcal/mol, the “folding stability dG unfold” value [2] is reported as 2.56 ± 0.31 kcal/mol and the “folding stability dG unfold” value [3] is reported as 1.72 ± 0.16 kcal/mol.

In the case of “SAGGSAGGGIDLSNPEDIEEALKKSGIVGVFKVKIIPLPGGKWKKIIEPVKLLPKEELEKAGLISAGGSAGG [r6_402_TrMRF]”, the “folding stability dG unfold” value [1] is reported as 0.444 ± 0.12 kcal/mol, the “folding stability dG unfold” value [2] is reported as 0.637 ± 0.095 kcal/mol and the “folding stability dG unfold” value [3] is reported as 0.825 ± 0.043 kcal/mol.

In the case of “SAGGSAGGKLENLPENVTEVRIEKNENGEYTIYVRNKETNEYVKLKVEKKDGEWKIVEKEVFPKSAGGSAGG [r6_937_TrROS_Hall]”, the “folding stability dG unfold” value [1] is reported as 3.02 ± 0.047 kcal/mol, the “folding stability dG unfold” value [2] is reported as 2.74 ± 0.26 kcal/mol and the “folding stability dG unfold” value [3] is reported as 2.09 ± 0.12 kcal/mol.

For “SAGEYVLVEVERGGKVETFVLPPELAKELLEKYSPDSEIPVKLEGREVRLRVLPIKPKEPTPEELAKAASAG [r5_669_TrMRF]”, the “folding stability dG unfold” value [1] was 1.85 ± 0.14 kcal/mol, the “folding stability dG unfold” value [2] was 1.41 ± 0.16 kcal/mol and the “folding stability dG unfold” value [3] was 0.306 ± 0.085 kcal/mol.

In the case of “SAMTTTTSVDPASGSSTVTTTEIIEKPAGKLPNGTKLPPVKVKKTTTTTYAPNGTKLSTTTTTTPVPLGSAG [r14_246_JUSTAS]”, the “folding stability dG unfold” value [1] is reported as 0.67 ± 0.11 kcal/mol, the “folding stability dG unfold” value [2] is reported as 0.874 ± 0.086 kcal/mol and the “folding stability dG unfold” value [3] is reported as 1.01 ± 0.064 kcal/mol.

In the case of “MTPEERIEEIEAKARELLRELGLPPEVRLTVEAEVRPRPDGRLELRVRVTVEFPGPPGAIPPELLEALAEES [r1_98_TrMRF]”, the “folding stability dG unfold” value [1] is reported as 2.38 ± 0.086 kcal/mol, the “folding stability dG unfold” value [2] is reported as 2.53 ± 0.14 kcal/mol and the “folding stability dG unfold” value [3] is reported as 2.7 ± 0.081 kcal/mol.

For “SAGGSAGGSYYMIEIEFPDTGQRITFPFKSLEEAKEFLPPGAPIREIEVQPIKPPVDPEQQNESAGGSAGGS [r12_851_TrROS]”, the “folding stability dG unfold” value [1] was 1.31 ± 0.12 kcal/mol, the “folding stability dG unfold” value [2] was 1.24 ± 0.11 kcal/mol and the “folding stability dG unfold” value [3] was 0.809 ± 0.054 kcal/mol.

In the case of “SASLEELLAELPFDAEVETKDEEVVVKITNPENPDPNVSYTFNIPSSSGVPITVNVTEVEGGTKSVKALSAG [r14_401_JUSTAS]”, the “folding stability dG unfold” value [1] is reported as -0.108 ± 0.24 kcal/mol, the “folding stability dG unfold” value [2] is reported as -0.172 ± 0.21 kcal/mol and the “folding stability dG unfold” value [3] is reported as -0.448 ± 0.15 kcal/mol.

In the case of “SAGGSAVKIDPKTKVIEVKNPETGETYRISLPDVPPEDGVEVEVGDDKIIIKTPKGTKEIPIDKAKSAGGSA [r15_864_TrMRF]”, the “folding stability dG unfold” value [1] is reported as 0.794 ± 0.18 kcal/mol, the “folding stability dG unfold” value [2] is reported as 0.529 ± 0.25 kcal/mol and the “folding stability dG unfold” value [3] is reported as -0.000856 ± 0.16 kcal/mol.
